{"source": "the nanobody polyreactivity screen of Harvey et al. (2022)", "data": [{"test": "yeast display, Sf9 membrane polyspecificity reagent, FACS + sequencing; frameworks hold sequencing errors", "in_short": "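Synthetic nanobody libraries on Saccharomyces cerevisiae BJ5465 were galactose-induced for 36–48 hours, stained 1 hour at 4 °C with 10% biotinylated, detergent-solubilized Sf9 membrane reagent and enriched on streptavidin microbeads. FACS then separated cells into low and high (top ~1%) gates by anti-HA (expression) and streptavidin (reagent binding) fluorescence. Genes were colony-PCR amplified, MiSeq 2 × 250 sequenced and CDR-length filtered. A clone's polyreactivity label is that of its gate of origin.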", "values": [{"sequence": "QVQLQESGGGLVQAGGSLRLSCAASGTITVLYKMGWFRQAPGKEREFVASINYGTSTYYADSVKGRFTVSRDSAKNTVYLQMNSRKPEDTAVYYCAAAYRWQDVYRYWGQGTQVTVSS", "polyreactivity (PSR sort gate)": "low polyreactivity"}, {"sequence": "QVQLVESGGGLVQAGGSLRLSCAASGFIFAEYAMGWYRQAPGKERELVAAITWSGVTTYYADSVKGRFTISRDNAKNTVYLLMNSLKPEDTAVYYCAAGRTRRKFDYWGQGTQVTVSS", "polyreactivity (PSR sort gate)": "low polyreactivity"}, {"sequence": "QVQLVESGGGLVHAGGSLRLSCAASGFIFKFYAMGWYRQAPGKERELVAAISKSGGRTYYADSVKGRFTISRDNAKNTVYLQMNSLKPEDTAVYYCNAPSVGAAFDYWGQGTQVTVSS", "polyreactivity (PSR sort gate)": "high polyreactivity"}, {"sequence": "QVQLEESRGGLVQAGGSLRLSCAASGLTSRQYAMGWYSQAPGKERELVAAITLRDGSTYYADSVKGRFTISRDNAKNTDYLQMNSLKPEDTAVYYCARRYLGLYSHFDYWGQGTQVTVSS", "polyreactivity (PSR sort gate)": "high polyreactivity"}, {"sequence": "QVQLVESGGGLVQAGGSLRLSCAASGFIFSLYAMGWYRQAPGKERELVAAISKRGGSTNYADSVKGRFTISRDNAKNNVYLQMNSLKPEDTAVYYCAKARPGFLYDHWGQGTQVTVSS", "polyreactivity (PSR sort gate)": "high polyreactivity"}, {"sequence": "QVQLVESGGGLVQAGGSLRLSCAASGSISWVYAMGWYRQAPGKERELVADITDSGDSTYYADSVKGRFTISRDNAKNTVYLQMNSLKPEDTAVYYCAADGWRHYYIYWPYNYWGQGTQVTVSS", "polyreactivity (PSR sort gate)": "low polyreactivity"}, {"sequence": "QVQLVESGGGLVQAGGSLRLSCAASGRIFWAYAMGWYRQAPGKERELVADITSGGSTYYADSVKGRFTISRDNAKNNVYLQMNSLKPEDTAVYYCAVGSKWVDDSPEDEYWGQGTQVTVSS", "polyreactivity (PSR sort gate)": "low polyreactivity"}, {"sequence": "QVQLVESGGGLVQAGVSLRLSCAASGSTFVGYAMGWYRQAPGKERELVAAISYSGGSTYYADSVKGRFTISRDNAKNTVYLQMHSLKPEDTAVYYCAAEWSRHYYYGPRYDYWGQGSQVTVSS", "polyreactivity (PSR sort gate)": "low polyreactivity"}, {"sequence": "QVQLVESGGGLVQAGGSLRLSCAASGSTFPYNVMGWYRQAPGKERELVASISWSGGRQYYADSVKGRFTISRDNAKNTVYLQMNSLKPEDTAVYYCAADAAFPADYWGQGTQVTVSS", "polyreactivity (PSR sort gate)": "low polyreactivity"}, {"sequence": "QVQLVESGGGLVQAGGSLRLSCPASGSIFPYYAMGCYRQAPGKERELVAAISSGDITDYADSVKGRFTISRDNAKNTVYLQMNSLKPEDTAVYYCAAATLSLYWPYLFRGSDYDYWGQGSQVTVSS", "polyreactivity (PSR sort gate)": "low polyreactivity"}, {"sequence": "QVQLVESGGGLVQAGGSLRLSCAASGIIFYEYVMGWYRQAPGKERELVAAINRSGGSTYYADSVKGRFTISRDNAKNTVYLQMNSLKPEDTAVYYCAASSTYDGRKYYYWGQGTQVTVSS", "polyreactivity (PSR sort gate)": "high polyreactivity"}, {"sequence": "QVQLVESGGGLVQAGGSLRLSCAASGITFFWNAMGWYRQAPGKERELVAAISSGAGTTYADSVKGRFTISRDNAKNTVYLQMNSLKPEDTAVYYCAARRYRYAYGPYNYWGQGTQVTVSS", "polyreactivity (PSR sort gate)": "low polyreactivity"}, {"sequence": "QVQLVESGGGLVQAGGSLRLSCAASGYTFPYYTMGWYRQAPGKERELVAAISSGGRTKYADSVKGRFTISRDNANNSVYVQMNSLKPEDTAVYYCSARSSYSFAFFWPAYNYWGQGTQVTVSS", "polyreactivity (PSR sort gate)": "high polyreactivity"}, {"sequence": "QVHLVESGGGLVQAGGSLRLSCAASGRTFYYNAMGWYRQEPGKEREFVAAIRYSGSITYYADSVKGRFTISRDNAKNTVYLQMNSLKPEDTAVYYCAADYVSRRYYYWGQGTQVTVSS", "polyreactivity (PSR sort gate)": "high polyreactivity"}, {"sequence": "QVQLVESGGGLVQVGGSLRLSCAASGFTFYDYAMGWYRQAPGKERELVAAISRGGSTYYADSVKGRFTISRDNAKNTVYLQINSLIPEDTAVYYCNARPTRIYHGMGYWGQGTQVTVSS", "polyreactivity (PSR sort gate)": "low polyreactivity"}, {"sequence": "QVQLVESGGGIVEAGGSLRLSCAASGSTYYWNAMVWYIQAPGKERELVAAISRDGSTYYADSVNGRFTISRDNAKKTVYLHMNCLKPEVTAVYYCAKACVTNVVVVDSVFAYDYWGQGTIVTVSS", "polyreactivity (PSR sort gate)": "low polyreactivity"}, {"sequence": "QVQLVESGGGLVQAGGSLRLSCAASGFIFYGYAMGWYIQAPGKERELVATISRRGGSTYYADSVKGRFTISRDNAKNTVYLQMNSLKPEDSAVYYCAKRRGTQEPTYVPTRSNGFDYWGHGTQVTVSS", "polyreactivity (PSR sort gate)": "low polyreactivity"}, {"sequence": "QVQLVESGGGLVQAGGSLRLSCAASGFIFRWYAMGWYRQAPGKERELVATITRGGGSTYYADSVKGRFTISRDNAKNTVYLQMNSLKPEDTAVYYCAKSVTGWRGLWYTPRNYYWGQGTQVTVSS", "polyreactivity (PSR sort gate)": "high polyreactivity"}, {"sequence": "QAQLQESGGSLVKAGGGLRLSCAASGYISVGSVMGRYRQAPSKERELVASIDQGANTNYADSVKGRFTISRDNGKNNVYLQMNSLKPEDTAVYYCATETTYILNYWGQGTEVTVSS", "polyreactivity (PSR sort gate)": "low polyreactivity"}, {"sequence": "QVQLVESGGGLVQAGGSLRLSCAASGRTFPVYSMGWYRQAPGKERELVDVITTRVTSTYYADSVKGRFTISRDNAKNSVYLQMNSLKPEDTAVYYCNARTAYTGNYGPPKGGYWGQGTQVTVSS", "polyreactivity (PSR sort gate)": "high polyreactivity"}, {"sequence": "QVQLVESGGGLVQAGGSLRLSCAASGGTFPQNLMGWYRQAPGQERELVAAISSGGSTYYADSGKGRFTISRDNAKNSVYLQMNSLKPEDTAVYYCAKRRWYRYDYWGQGTQVTVSS", "polyreactivity (PSR sort gate)": "high polyreactivity"}, {"sequence": "QVQLVESGGGLVQAGGSLRLSCAASGRTFKYNAMGWYRQAPGKERELVAAISSTGSTNYADSVKGRFTISRDNAKNTVYLQMNSLKPEDTAVYYCAASYYFVQWGWYYYWGQGTQVTVSS", "polyreactivity (PSR sort gate)": "low polyreactivity"}]}]}
